Target: seven of the nine datasets (monoUb and the diUb types fitted to a one-site binding model)
Assay: SPR; monoUb and all types of diUb immobilized, NZF1 (or its mutants) binding detected; one-site or two-site binding model; two experiments

Kd: 190 to 370 µM
Substance: TRABID NZF1 (aa 1-33) (from UniProt Q9UGI0 1-33) (domain or fragment)
